B1: spike (S) protein: N726Q (protein)
parent chain: MKSLTYFWLFLPVLSTLSLPQDVTRCSANTNFRRFFSKFNVQAPAVVVLGGYLPIGENQGVNSTWYCAGQHPTASGVHGIFVSHIRGGHGFEIGISQEPFDPSGYQLYLHKATNGNTNATARLRICQFPSIKTLGPTANNDVTTGRNCLFNKAIPAHMSEHSVVGITWDNDRVTVFSDKIYYFYFKNDWSRVATKCYNSGGCAMQYVYEPTYYMLNVTSAGEDGISYQPCTANCIGYAANVFATEPNGHIPEGFSFNNWFLLSNDSTLVHGKVVSNQPLLVNCLLAIPKIYGLGQFFSFNQTIDGVCNGAAVQRAPEALRFNINDTSVILAEGSIVLHTALGTNFSFVCSNSSDPHLATFATPLGATQVPYYCFLKVDTYNSTVYKFLAILPPTVREIVITKYGDFYVNGFGYLHLGLLDAVTINFTGHGTDDDVSGFWTIASTNFVDALIEVQGTAIQRILYCDDPVSQLKCSQVSFDLDDGFYPISSRNLLSHEQPISFVTLPSFNDHSFVNITVSASFGGHSGANLIASDTTINGFSSFCVETRQFTISLFYNVTNSYGYVSKSQDSNCPFTLQSVNDYLSFSKFCVSTSLLASACTIDLFGYPEFGSGVKFTSLYFQFTKGELITGTPKPLVGVTDVSFMTLDVCTKYTIYGFKGEGIITLTNSSFLAGIYYTSDSGQLLAFKNVTSGAVYSVTPCSFSEQAAYVDDDIVGVISSLSNSTFNSTRELPGFFYHSNDGSNCTEPVLVYSNIGVCKSGSIGYVLSKSGQVKIAPTVTGNISIPTNFSMSIRTEYLQLYNTPVSVDCATYVCNGNSRCKQLLTQYIAACKTIESALQLSARLESAEVNSMLTISEEALQLATISSFNGDGYNFTNVLGVSVRDPASGRVVQKRSFIEDLLFNKVVTNGLGTVDEDYKRCSNGRSVADLVCAQYYSGVMVLPGVVDAEKLHMYSASLIGGMVLGGFTAAAALPFSYAVQARLNYLALQTDVLQRNQQLLAESFNSAIGDITSAFESVKEAISQTSKGLNTVAHALTKVQEVVNSQGAALTQLTVQLQHNFQAISSSIDDIYSRLDILSADVQVDRLITGRLSALNAFVAQTLTKYTEVQASRKLAQQKVNECVKSQSQRYGFCGGDGEHIFSLVQAAPQGLLFLHTVLVPGDFVDVIAIAGLCVNDEIALTLREPGLVLFTHELQNHTATEYFVSSRRMFEPRKPTVSDFVQIESCVVTYVNLTRDQLPDVIPDYIDVNKTLYEILASLPNRTGPSLPLDVFNATYLNLTGEIADLEQRSESLRNTTEELQSLIYNINNTLVDLEWLNRVETYIKWPWWVWLIIFIVLIFVVSLLVFCCISTGCCGCCGCCGACFAGCCRGPRLQPYEAFEKVHVQ
B2: spike (S) protein: N1232Q (protein)
parent chain: B1 parent chain
B3: spike (S) protein: N381Q (protein)
parent chain: B1 parent chain
B4: spike (S) protein: N118Q (protein)
parent chain: B1 parent chain
B5: spike (S) protein: N344Q (protein)
parent chain: B1 parent chain
B6: spike (S) protein: N1196Q (protein)
parent chain: B1 parent chain
B7: spike (S) protein: N324Q (protein)
parent chain: B1 parent chain
B8: spike (S) protein: N1261Q (protein)
parent chain: B1 parent chain
B9: spike (S) protein: N1278Q (protein)
parent chain: B1 parent chain
B10: spike (S) protein: N351Q (protein)
parent chain: B1 parent chain
B11: spike (S) protein: N300Q (protein)
parent chain: B1 parent chain
B12: spike (S) protein: N1249Q (protein)
parent chain: B1 parent chain
B13: spike (S) protein: N62Q (protein)
parent chain: B1 parent chain
B14: spike (S) protein: N743Q (protein)
parent chain: B1 parent chain
B15: spike (S) protein: N216Q (protein)
parent chain: B1 parent chain
B16: spike (S) protein: N781Q (protein)
parent chain: B1 parent chain

Assay: BAC transfection of Vero cells; CPE, western blot
Details: glycan lost; control: rPEDV-WT

Protein	other: virus rescue (viability), other: viruses recovered/attempts
B1	no change
B2	no change
B3	no change
B4	no change
B5	no change
B6	no change
B7	no change
B8	no change
B9	no change
B10	no change
B11	no change
B12	no change
B13	no change
B14	no change
B15	no change
B16	no change

Assay: oral challenge; fecal scores, gross necropsy
Details: glycan lost; control: rPEDV-WT

Protein	other: virulence in animals
B1	decreases
B2	decreases
B4	decreases
B12	decreases
B15	decreases

Assay: plaque morphology assay, ImageJ
Details: glycan lost; control: rPEDV-WT

Protein	other: plaque size
B1	decreases
B2	decreases
B4	decreases
B12	decreases
B15	decreases

Assay: viral titre at 24 hpi, MOI 0.01
Details: glycan lost; control: rPEDV-WT

Protein	other: viral replication
B1	decreases
B2	decreases
B3	no change
B4	decreases
B5	no change
B6	no change
B7	no change
B8	no change
B9	no change
B10	no change
B11	no change
B12	decreases
B13	no change
B14	no change
B15	decreases
B16	no change

Assay: 37 °C 30 min, citrate wash, RT-qPCR
Details: glycan lost; control: rPEDV-WT

Protein	other: viral internalization
B2	decreases
B4	decreases
B15	decreases

Assay: viral titre in LLC-PK1 cells
Details: glycan lost; control: rPEDV-WT

Protein	other: viral replication
B1	decreases
B2	decreases
B4	decreases
B12	decreases
B15	decreases

Assay: CHX chase, anti-Flag western blot, 293T
Details: glycan lost; control: WT S protein

Protein	degradation_or_half_life
B1	no change
B2	no change
B4	no change
B12	no change
B15	no change

Assay: RT-qPCR of intestinal tissues at 5 dpc
Details: glycan lost; control: rPEDV-WT

Protein	other: intestinal viral load
B1	no change
B2	decreases
B4	no change
B12	decreases
B15	no change

Assay: H&E staining of intestine at 5 dpc
Details: glycan lost; control: rPEDV-WT

Protein	other: intestinal histopathology
B2	abolishes
B12	abolishes

Assay: RT-qPCR of rectal swabs
Details: glycan lost; control: rPEDV-WT

Protein	other: faecal viral shedding
B2	decreases
B12	decreases

Assay: 4 °C binding, RT-qPCR of PEDV N
Details: glycan lost; control: rPEDV-WT

Protein	other: viral attachment
B2	no change
B4	decreases
B12	no change

Assay: anti-PEDV N immunofluorescence of intestine sections
Details: glycan lost; control: rPEDV-WT

Protein	other: intestinal viral antigen
B2	abolishes
B12	abolishes

Source: paper PMC12395675
